The text below walks through data of PMC6880163 (Journal of Virology, 2019).

This series deals with the molecule itself. Nature of the series: cross-linking; intact doxycycline-induced HT1080 cells in 1x PBS treated with 0.2 mM EGS (membrane-permeable) for 30 min at room temperature, lysed in LDS sample buffer, Western blot with anti-RFP antibody. On the technique in general: In western blotting, separated proteins are transferred to a membrane and probed.

Positions count from the first letter of the chain named. Names may count otherwise.

B1: TagRFP/TRIM69 V95A L96A double mutant (natural protein, human, UniProt Q86WT6 1-500, looked up)
chain: MEVSTNPSSNIDPGDYVEMNDSITHLPSKVVIQDITMELHCPLCNDWFRDPLMLSCGHNFCEACIQDFWRLQAKETFCPECKMLCQYNNCTFNPAADKLVEKIKKLPLLKGHPQCPEHGENLKLFSKPDGKLICFQCKDARLSVGQSKEFLQISDAVHFFTEELAIQQGQLETTLKELQTLRNMQKEAIAAHKENKLHLQQHVSMEFLKLHQFLHSKEKDILTELREEGKALNEEMELNLSQLQEQCLLAKDMLVSIQAKTEQQNSFDFLKDITTLLHSLEQGMKVLATRELISRKLNLGQYKGPIQYMVWREMQDTLCPGLSPLTLDPKTAHPNLVLSKSQTSVWHGDIKKIMPDDPERFDSSVAVLGSRGFTSGKWYWEVEVAKKTKWTVGVVRESIIRKGSCPLTPEQGFWLLRLRNQTDLKALDLPSFSLTLTNNLDKVGIYLDYEGGQLSFYNAKTMTHIYTFSNTFMEKLYPYFCPCLNDGGENKEPLHILHPQ
notes: also called multimerization-defective mutant of TRIM69; not shown: TagRFP, N-terminal, kept
As for B1, the stoichiometry N (as a rule, a count of units in the complex or per binding partner) was found to be 2.

B2: TagRFP/TRIM69 L99A single mutant (natural protein, human, UniProt Q86WT6 1-500, looked up)
chain: B1 chain with A95V, A96L, L99A
notes: as for B1
For B2, the “stoichiometry N” value came out at 2.
